In this assay the target is transmembrane glycoprotein gp41 of HIV-1 strain BaL, in the native spike on virions (HIV-1 strain BaL). Briefly: cryo-EM structure.

For orientation: stoichiometry N means the number of molecules, sites or subunits per partner or assembly. “transmembrane glycoprotein gp41 of HIV-1 strain BaL, in the native spike on virions (natural protein)” showed a stoichiometry N of 3.
